From the domain aggregation screens of Martell et al. (2025)

Assay: soluble fraction after stress (log2 fold change); higher = more stays soluble; pooled small domains, quantitative proteomics
Conditions: stress: pH 4
Summary of the method: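 Custom libraries of small protein domains were pooled and exposed to pH 4. High-throughput quantitative proteomics then measured the log2 fold change in the amount of each domain still soluble, with higher values meaning more stayed soluble. This soluble-fraction fold change stands for aggregation propensity.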

Sequence | soluble fraction (log2)
HMTATSKKAAWDEVNKIFPTDYERSAAESERAGYAIFRSTAEGVNAWISDLGDRLEINLPDGKTVNIWIEE | -0.624
HMTATVPDSEAGIRLDVYAAALLGVSRAGAQKYIESGAVRVNGLPAPKNRRLESGDVIEAVLPDPE | ≥ 0.43
HMTAVAAEQQAQDAYRQTAANNLNEIQAKYKLPDSESDDFFTFAYERGFTQEDFIDIGLVDKIMGDYV | -0.203
HMTAVNEHELMNQFKLSLGYANGDDPQTKLSTDEKNDFMRFKEWATAMTKDSKMGKDPDYLKKLAVQWTLK | 0.102
HMTAYEGLPVTLIIDGRVFQQNLQKMNLSVEWLRLELKKFGVTNLKEVLFASLDTEGKLFYQLKT | -0.878
HMTDEYYSYIGKTGTTITVLRPAGIAEVEGERLNVVSEGEFIRKGAAILVKEVEGARILVEEVN | 0.349
HMTDFESYTVRVTATNLNIRKGAGTNFHSAGYIKPGVYTIVEEADGKGATRWGKLKSGMGWISLDYAKK | 0.428
HMTDGYAMRLERLNSLEEYVLNKGTVSLEDLAERFGVSINTIRRDLNELISRGQIKKVYGGVSSLHD | -0.245
HMTDIDATSIERAVAKRRHFFLSNIQDLTMKMARRLIEKDLGLAPKHLDAAPFKTRITELVDAVIALGD | -0.484
HMTDIKYLIADGNDIKHWDTASSSYVKVSELPLTSDKFKIYGDDIYHKERTGIIAASPILKIWSPSAE | -0.0343
HMTDKLIAYSVDGILNVITSEAQSVKVYAIDGRLVRILQLGEGRNEVSGLAKGIYIVDNRKVAV | 0.0217
HMTDLNQIGERIKGLRDALGYSPEKMASILEQKVDDYLAYEEGTKDISLSVLQRIEKEFDIDLSTLLFGT | -1.17
HMTDRKRDAIVQAAIGEFREHGFNGTSMDRVAAAADVSKRTVYNHFPSKEELFEAILLLMWE | -1.78
HMTDSISLTLNGDPRPFRAGATVADLVRDIGLDPAKVAVERNLEIVPRSTLENVHLADGDVLEIVHFV | -0.45
HMTDTIALRSVIAESGLKYKALAEIMGLSPYTLQMKIDNESEFKASEIDALANALGMDMQQRDSIFF | -0.406
HMTDVIADMLTRIRNAASSKHQTVDIPSSNLKKEIAKILLEEGYIRDFIEIDDKKQGIIRITL | -0.617
HMTDYREILRLLSLGLSRTQIADSLNVSRTTVIHTLQRAVAQELDWQTAEGMSDRELVAKLFPV | -0.564
HMTEAVYMPALQNKTLEEAQRIVEQYDLELEYTYEANAQVEEGRILSQTPQMGVLVERGEKVQAVVSLG | -0.43
HMTEDELLAQFEEILDGYVGKPGGLIPALQTAQKLFGYLPKRVLQLISMKLDIPYSEVTGVVSFYSFFTTV | -1.12
HMTEEEEFEKGFEILVNLSHFNRFSVYKEDEYVIVRIADYDFNEYFKVKKSDVGRIAEFLNENIT | -1.86
HMTEELLNQRKETMLALLNDPTYVPMKLKELAMLLNLSRDQRDELREVMESLEQDGKVILTKRGKYKIP | -0.255
HMTEELQDMESRIIEAAKRVFVRKGYEATKMSDIALEVGLGRTALHYYFRTKEMLFDAIFGRLMGV | -0.594
HMTEEPISDGIKKLVEEWENIEGNLIMIFHGIQKHYGYVPRNVAKYVSEAIDVPLTRIYEILTFYNYFTM | -1.43

Sequence | soluble fraction (log2)
HMTEEYAVLWRVARQTLKPEAFDVLWMKYREQLSIAEIAGIMNRSETSVKVMLHRARKNLGTALESS | -0.262
HMTEKIEWYKEVLELEPNSKVFFPLARMLAEEQRFDEAVAVLEHGLERHGEFLEARLFFIELLHET | -2.04
HMTEKQYIYSIGDRVNIGTDEFEIVNINEKEVSIADVTFPMLVKQISYEEFDRKVKENPFNDHLII | -1.25
HMTEKSTRSVPQEHEGKRLDVAAALLFPVYSRSELARRIDAGYLLLNGKGSTPKTKVHELDLIELLEV | -1.65
HMTELKKTAVDTWVKDLGTEQALAKLDTLAVVKLRRLAREYKAFGIAGRAISKADKGMLLAEFRAYYEN | 0.171
HMTETSKLTDAKQLLESILSSGEVSYKDIISAAEEYEIGKRTLMSAKALLSIESIKKTDGWYWTLPH | -0.0778
HMTEVPSLSSLKIGDLIFYRNNKGAIAHSAIITSFYNGRPFISQHTFNALNITYVKDWASKMHFIKIW | -0.934
HMTEWDDATVKDAVEYFMSVNGRVPTVTDFKKENGLPSHPVIKQRYKINLHEWLNKNFPTYY | -1.19
HMTFEPVYDENSRILILGTFPSVKSREQQFYYGHPQNRFWKLLAALTGWKVPKTISEKKELLLQNGIA | -0.665
HMTFFDDLLYQAKAAVDNDPSIKPSLHNRAIIEILYQQGVFNMKNAVEHVAELLEISKNTVYLHLRSVKG | -0.976
HMTFGEMLQYTNRLKEILESNAPQSIKDRRLANLMTDLEQAYGIPILRDQEFEKENPFLMQLYRTIS | -1.36
HMTFKDIMENYTISRIENTINSAVVFLDEINAYITIDKTQLPSNLRYDTDSKIMASQIPDDAKIKYFMIYW | -1.61
HMTFPIDINRADTEQLTALPGIGEVLAKRIIAYREENGSFLSTDELKNVEGIGEKRLEAIVDLITIG | -0.935
HMTFSDKIRELRKQKGVSQAVVAEYLGITKQAYSLYETGKREPDFDSLLKLAEYFGTDTDSLLY | -0.379
HMTGEEVLIMLGEKMKLIRNYNGYSQRQIAEILKIERSTYASYETGRNRPDIFAVQRFAKIFNVSVDYIL | -0.877
HMTGELEVTAAGLSPEKLLNLAAKNHITLSNVKRLSYTQLSFRIGPADYNRLKKLLPEGRYKLNVGSS | -0.0957
HMTGESIPFSKFLSEVDSGRVINVEIQGNNISGLLSDGNKFKTYSPNYPNLVEILSEKEVSIVATPLE | -0.166
HMTGGLTQEQISQLRMLTPQQIEQLRQLQPQQVEMLRQLRPEQVMLLTQLEPQQIMAFMRLEPSVIMQL | -0.657
HMTGGMVTYIIEKGEGFFSLERKFGLSENELIKLNPSLKSGLKSEMQINIPKENYDRYVASS | 0.206
HMTGIESVKPSSDFTVEGNRIVAGDAEVEVYDLAGRKVNNNNLTTGVYIAKIAGSAESVKVFV | 0.22
HMTGIQDVPALETRRVGNTFFFDRATDVQVYDLQGRLLQQARKVTSVSIGHLQQGVYVLTDGRASVKVQ | -0.7
HMTGIQLNDRERAILQHLSDGLTTKAIAERIFLREDTVKWYRKNLLARFEQPIVAALVKWAVLEGLV | 0.409
HMTGIVVVDVVGQVGRPGLVSLPAGSRVADAITAAGGATPEADVSLLNQARLVIDGEQIRVPRPGEVIAA | 0.22

Sequence | soluble fraction (log2)
HMTGKVSHGERKSVLVSLAGSMRARGMSIDAVRAGLYADNEKRFDPPLDERDIEDVLNSAKKWGDP | -0.0814
HMTGMDALIGRRVFVSEEILPGDAGGRVAVDGDSWRAISVGTAKPIPAGTEVRIHGYKSLILEVEPI | 0.0974
HMTGQHFDLEDTDGNLVYEIDSTVPLKTFYIYDAMHTEIFRMTKELLHALPTYRFYLYGEPYGVLKKQ | -0.52
HMTGRVKWYDATKGFGFVTSDEGGDVFLPKGALPAGVADLKTGQRIEFGVVDSRKGAQALGVK | -0.22
HMTGSAETRGITLTDEQVTVWAKDGSWANYVYRATDGNWYDGSGRLYYENGGGEWTQAATGEQGS | -1.68
HMTGSALDATIEKLLDLGSKAGSVTEDEIQIVLKNVDVTDAQLSSIYQFLRDRGVEIVSATEDDD | -1.38
HMTGVPYLVRVKITDLHIRSGPGTNYASKGFIAPGAYTIVEESTGQGAALWGKLKSGKGWIALGYTEK | 0.0451
HMTHAISKTYAVTGEQLKNGFTLTHTFANGSTRRVDVYPGSRSGKVIAVRNTTDDTTEWIRIVEG | -0.0152
HMTHSEYVGRHGIAATSLRPAGAATIDGSRVDVVTSGEYIEKGTPIEVMTVNGSTVRVKAVPQIP | 0.08
HMTIDANAIEKMVLDLIGEHPNEWGRYRDGDKKVQGFFVGQIMKATSGQADGKIVNQILSQHAEA | 0.126
HMTIELAEGQHFLQISKSGAPMGNVVRDLIIQTLKITNGNQIKAAKILGISRAKLRYRIEQLGINITGKNI | -0.0446
HMTIERVKIKETPTGWLRVRETPDNNGSEIGRANVGEIYELLGSKGEWYHIVYKGKQGFISTKYAEKVL | -0.124
HMTIGEALLNLRKQLGLNQTEMAANVVSTSFYSKVERNIHDIGTKDLLQILNKHQINATYFFENLN | -0.446
HMTIHVMEIKSLLPIKILDESQHLVQSFSSKNPTSYNYRLIFSDKSKLENIKKTINENKDVESIEIRYA | -0.436
HMTILTSSQRKALISKMIRQGGVESQSHLVKLLAREGVKVTQATASRDLEDLGATRVRDANGEFQYVIP | 0.0156
HMTINQIDPASGRKVGYWIITGEMKPKEGFSPDNKIEEGIYVNSRKSGKWIKYWPNGNVRSEIIYKNGR | -0.0109
HMTITPEVIVNHFKNLDLFFTKNGNYYEFKKKGTENILFKYGIYKQKPNIFVKIQRYPISSLSDLERIPI | -0.159
HMTIYLSENIKRLRLEKELTQETLSEFLGVTSQSVSNWERGESYPDITMLPEIADFFKVSVDELLGVNRAE | -1.66
HMTIYPFNPNYLKDYQAYRVGLSLKEIDALLDFRSSGQWINSAEDFQRITGVSDSVLEQLIPYFKFS | -1.73
HMTKASYKITTPSGVNVREGAGKRYAVRKAYPKGKTVTVTQTKEVNGNLWGKTSDGWFAIKYQGAVYASA | 0.2
HMTKDEFLTTLRTLIQDMPPEDRRDVMNYYTEYFEDAGPEREQEVLRQLGSPEQVAREVLGG | -0.459
HMTKDVIEIVDGNKFVFHKTIATDSVSSVINKYHISEADFRTWNELTGDMKVGEEYIVQLSLH | -0.576
HMTKKFQIQTLDKLNVRKVADWNASAVTTVKKGQILDVVAEVSPKNGSTKMYKLESGLYITASEKYVKKQG | ≥ 0.43
